Test: yeast display, Sf9 membrane polyspecificity reagent, FACS + sequencing; frameworks hold sequencing errors
Summary of the method: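 Nanobodies came from a synthetic yeast display library in Saccharomyces cerevisiae BJ5465, induced with galactose for 36–48 hours and stained for 1 hour at 4 °C with 10% biotinylated, detergent-solubilized Sf9 membrane reagent. Cells were enriched on streptavidin microbeads and then FACS-sorted, with low and high (top ~1%) gates set on anti-HA fluorescence for expression and streptavidin fluorescence for reagent binding. Each polyreactivity label reflects the gate a clone came from. Genes were amplified by colony PCR, sequenced by MiSeq 2 × 250 and filtered by CDR length.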

Sequence	polyreactivity (PSR sort gate)
QVQLVESGGGLVQAGGSLRLSCAATGRTFRIYAMGWYRQAPGKEREFVAAITWSGGRTYYADSVKGRFTISRDNAKNTVYLQMNSLKPEDTAVYYCAADPTYLRTLRFGSYDYWGQGTQVTVSS	high polyreactivity
QVQLVESGGGLVQAGGSLRLSCAATGRTFRPYAMGWYTQAPGKEREMVDAIDSSGTSTYYADSVKGRFTISRDNAKKTVYLQMNSQKPEDTAVYYCAKAWPDHWYSRYDYWGQGTQVTVSS	low polyreactivity
QVQLVESGGGLVQAGGSLRLSCAATGRTFSTYAMGWYRQAPGKERELVAAISSGGGRTYYADSVKGRFTISRDNAKNTVYLQMNSLKPEDTAVYYCAADFLWYIYIIGTSLEFDYWGQGTQVTVSS	low polyreactivity
QVQLVESGGGLVQAGGSLRLSCAATGSIFASYAMGWYRQAPGKERELVASITRVDSTNYADSVKGRFTISRDNAKNTVYLQMNSLKPEDTAVYYCAADYYIVLTKSDGLFGSWGQGTQVTVSS	low polyreactivity
QVQLVESGGGLVQAGGSLRLSCAATGSIFDYNAMGWYTQAPGKERELVAALTSGGSTNYADSVKGRFTISRDNAMNTVYLQMNSLKPEDTAVYYCAADHDYYPSNLDYWGQGTQVTVSS	low polyreactivity
QVQLVESGGGLVQAGGSLRLSCAATGSIFYAYAMGWYRQAPGKERELVAGISGGGSTNYADSVKGRFTISRDNAKNTVYLQMNSLKPEDTAVYYCAADGWLSATYDGLPDSDSWGQGTQVTVSS	high polyreactivity
QVQLVESGGGLVQAGGSLRLSCAATGSIFYQNAMGWYRQAPGKDRELVAAISSRGGRTYYADSVKGRFTISRDNAKNTVYLQMNSLKTEDTAVYYFNAARFPYSKDYDYWGQGNQVTVSS	high polyreactivity
QVQLVESGGGLVQAGGSLRLSCAATGSNFGSNAMGWYRQAPGKEMELVAAITESGGDTYYADSVKGRFTISRDNAKNTVYLQMNSLKPEDSAVFYCAARYFGGIVDVSLFREYGSWGQGTQVTVSS	low polyreactivity
QVQLVESGGGLVQAGGSLRLSCAATGSTFASYAMGWYIQAPGKERELVAAITNGGSTNYADSVKGRFTISRDNAKNNVYLQMNSLNPEDTAVYYCAAYDGFPRRYDYWGQGTQVTVSS	low polyreactivity
QVQLVESGGGLVQAGGSLRLSCAATGSTFGYYAMGWYRQSPGKERELVAAISRSGTSTYYADSVKGRFTISRDNAKNTVYLQMISLKPEDTAVYYCIRYGFNSQDYWGQGTQVTVSS	high polyreactivity
QVQLVESGGGLVQAGGSLRLSCAATGSTFWPYAMGWYRQAPGKERELVAAIRVIGGSTYYADSVKGRFTISRDNAKNTVYLQMNSLKPEDTAVYYCNAYRPGGARFYARYRYDYCGQGTQVTVSS	low polyreactivity
QVQLVESGGGLVQAGGSLRLSCAATGSTFWQYVMGWYRQAPGKERELVAAISYSGGSTYYADSVKGRFTISRDNAKNTVYLQMNSLKPEDTAVYYCATRGYRWSVFDYWGQGTQVTVSS	high polyreactivity
QVQLVESGGGLVQAGGSLRLSCAATGTTFGYYTMGWYRQAPGKERELDAAISWSGSSTYYADSVKGRFTISRDTAKNTVYLQMNSLKPEDTAVYYCNARGGARAWYFAYKYWGQGTQVTVSS	high polyreactivity
QVQLVESGGGLVQAGGSLRLSCAATRSIFSLYTMGWYRQAPGKERELVAVISSAGRTYYADSVKGRFTISRDNGKNTVYLQMNSLKPEDTAVYYCARLTGQRTQTRSDYWGQGTQVTVSS	high polyreactivity
QVQLVESGGGLVQAGGSLRLSCAAYGFTFTRKAMGWYRQAPGKERELVAAISGSGGSTYYADSVKGRYTISRDNAKNTVYLQMNSLKPADTAVYYCAKDGWWRKYDYWGQGTQVTVSS	high polyreactivity
QVQLVESGGGLVQAGGSLRLSCAAYGFTIRRYAMGWSIQAPGKERELVAAITWSAGSTYYADSVKGRFTISRDNAKYTVYLQMNSLKPEDTAVYYCAARCKRWGADSGYYWGNGTQVTVSS	high polyreactivity
QVQLVESGGGLVQAGGSLRLSCAAYGGIFKQYALGCYRQAPGKERELVAANTWSGGSTYYADSVKGRFTISRDNAKNTVYLQMNSLKPEDTAVYYCAKDYVLFQYVDFQDDDYWGQGTQVTVSS	low polyreactivity
QVQLVESGGGLVQAGGSLRLSCAAYGHIFFYYTMGWYRQAPGKERELVAAITIGGSTNYADSVKGRFTISRDYAKNTVYLQMNSLKPEDTAVYYCNVVKYVYIYSYWEYYYWGHGTQVTVSS	low polyreactivity
QVQLVESGGGLVQAGGSLRLSCAAYGITFGANAMGWYRQAPGKERELVADITWSGGDTYYADSVKGRFTISRDNAKYTVYLQMTSLIPEDTAVYYCNALQPGLGSPLGEYDFWGQGTQVTVSS	low polyreactivity
QVQLVESGGGLVQAGGSLRLSCAAYGITFTPNAMGWYRQAPGKEREFVAAITYSGGSTYYADSVKGRFTISRDNAKNTVYLQMNSLKPEDTAVYYCAAVYYLLYYEAYYYWGQGTQVTVSS	low polyreactivity
QVQLVESGGGLVQAGGSLRLSCAAYGLIFAISAMGWYRQAPGKERELVAAIRWSGASTYADSVKGRFTISRDNAKNTVYLQMNSLKTEDTAVYYCAADDLLHYDYWGQGTQVTVSS	low polyreactivity

Reference: the nanobody polyreactivity screen of Harvey et al. (2022)
